B1: Epsin-1 (Saccharomyces cerevisiae), Q12518 (parent)
chain: MSKQFVRSAKNLVKGYSSTQVLVRNATSNDNHQVSKDSLIELAEKSYDSADFFEIMDMLDKRLNDKGKYWRHIAKALTVIDYLIRFGSENCVLWCRENLYIIKTLKEFRHEDDEGIDQGQIVRVKAKELTALLSDDERLNEERNMNIKGRNRKGRRRRGTGRSDENDDDLQRAISASRLTAEEDERRRKQDEDYETALQLSKEEEELKRLQDLQRMQQQQGQQQLQQPMYYDIFGNPITPEEYAQFQLQQQQQQQQQQLQQQPMYYDVFGNPITPEELAQFQQQQQLQEQQYLASMQQQQQAMSNNPFAKSEQSSSSPKRNQLVAASSPQQLQQQKQQEPLIQNRTGNQSMTDKYSKLNELLATGTGIDTFGNVGEARIPAQHTKTGTFINSQGTGYRQVSDDPNHNPFLNSQYTGLPSTSVVPTQTGYGFGNQSQQQSQNNGSNNRGYTLIDL
partner: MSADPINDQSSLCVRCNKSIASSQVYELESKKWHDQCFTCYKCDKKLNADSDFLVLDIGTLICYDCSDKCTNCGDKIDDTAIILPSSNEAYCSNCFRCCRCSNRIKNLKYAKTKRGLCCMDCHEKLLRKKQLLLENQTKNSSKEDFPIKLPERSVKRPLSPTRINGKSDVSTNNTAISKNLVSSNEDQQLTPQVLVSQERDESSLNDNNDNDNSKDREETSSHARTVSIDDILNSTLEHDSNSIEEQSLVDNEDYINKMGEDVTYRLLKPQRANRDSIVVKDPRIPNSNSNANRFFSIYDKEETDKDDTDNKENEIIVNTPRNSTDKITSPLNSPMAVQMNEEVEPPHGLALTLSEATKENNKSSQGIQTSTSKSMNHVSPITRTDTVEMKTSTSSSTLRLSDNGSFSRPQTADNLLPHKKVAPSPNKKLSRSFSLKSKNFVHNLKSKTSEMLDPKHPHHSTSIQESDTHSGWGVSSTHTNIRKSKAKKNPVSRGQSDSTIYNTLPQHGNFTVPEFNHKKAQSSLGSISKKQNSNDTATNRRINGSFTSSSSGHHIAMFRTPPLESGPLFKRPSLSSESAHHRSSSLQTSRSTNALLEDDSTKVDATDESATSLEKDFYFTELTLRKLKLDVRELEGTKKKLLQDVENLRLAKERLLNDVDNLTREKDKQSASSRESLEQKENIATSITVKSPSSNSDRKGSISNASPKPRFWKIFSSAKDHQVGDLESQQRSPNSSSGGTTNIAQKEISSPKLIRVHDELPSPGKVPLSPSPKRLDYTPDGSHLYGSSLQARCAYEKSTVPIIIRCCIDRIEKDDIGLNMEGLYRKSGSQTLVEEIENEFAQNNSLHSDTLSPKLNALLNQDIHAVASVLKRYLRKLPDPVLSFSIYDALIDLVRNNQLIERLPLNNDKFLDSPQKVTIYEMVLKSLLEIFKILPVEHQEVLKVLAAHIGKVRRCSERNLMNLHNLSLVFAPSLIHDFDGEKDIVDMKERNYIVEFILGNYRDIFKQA

Variants of: B1
Details: with rga2_yeast RGA2, Q06407

Variant	effect of a mutation on the interaction
T104D	disrupting interaction strength
Y100R;T104D	disrupting interaction strength

Variants of: B1
Details: with rga2_yeast RGA2, Q06407
Remark: another data set of the same source

Variant	effect of a mutation on the interaction
Y100R	disrupting interaction strength
